Results taken from paper PMC9714796, “Macrophage TGF-β signaling is critical for wound healing with heterotopic ossification after trauma” (JCI Insight, 2022).

B1: Transforming growth factor-β3 (TGF-β3) (ligand, UniProt P10600 301-412, looked up)
chain: ALDTNYCFRNLEENCCVRPLYIDFRQDLGWKWVHEPKGYYANFCSGPCPYLRSADTTHSTVLGLYNTLNPEASASPCCVPQDLEPLTILYYVGRTPKVEQLSNMVVKSCKCS
notes: TGF-β3 ligand used as SPR analyte
B2: TGF-βRII-Fc (muTGFbRII-mFc) (Fc fusion, UniProt Q62312 24-166, looked up)
chain: IPPHVPKSVNSDVMASDNGGAVKLPQLCKFCDVRLSTCDNQKSCMSNCSITAICEKPHEVCVAVWRKNDKNITLETVCHDPKLTYHGFTLEDAASPKCVMKEKKRAGETFFMCACNMEECNDYIIFSEEYTTSSPDLLLVIIQ

Experiments:
[1] = molecular target: B2; assay: SPR; Biacore T100; TGF-βRII-Fc captured (~50 RU) by an anti-mouse Fc antibody amine-coupled to a CM5 chip; ligand injected at 0.013-10 nM (0.013-1.1 nM used for the fit); HBS-EP with 350 mM NaCl and 0.5 mg/mL BSA; 1:1 model with mass transport, KD = kd/ka; details: both partners purified
[2] = molecular target: Transforming growth factor-β1 (TGF-β1) (UniProt P01137 279-390); assay: cell-based or functional assay
Transforming growth factor-β1 (TGF-β1), sequence (P01137 279-390): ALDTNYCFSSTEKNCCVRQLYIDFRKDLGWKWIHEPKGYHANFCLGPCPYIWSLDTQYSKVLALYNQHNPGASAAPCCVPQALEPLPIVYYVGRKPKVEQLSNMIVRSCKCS

[3] = molecular target: B1; assay: cell-based or functional assay

| Binder | Kd [1] [nM] | IC50 of TGF-βRII-Fc against TGF-β1 (640 pg/mL) signalling in A549 cells with the (CAGA)12 luciferase reporter [2] [pM] | IC50 of TGF-βRII-Fc against TGF-β3 (270 pg/mL) signalling in A549 cells with the (CAGA)12 luciferase reporter [3] [pM] |
| --- | --- | --- | --- |
| B1 | 0.0112 |  |  |
| B2 |  | 22.9 | 4.46 |
